Experimental data taken from paper PMC4072727, “Selection and Characterization of a DNA Aptamer That Can Discriminate between cJun/cJun and cJun/cFos”.

What was measured:
[1] = target: T1, cJun (cJun/cJun homodimer) (UniProt P05412 1-331, C269S); assay: EMSA; EMSA: 100 mM KCl, 4 mM MgCl2, 20 mM Tris pH 7.9, 20 mM HEPES pH 7.9, 10% glycerol, 0.1 mM DTT, 60 ug/ml BSA, 0.06% NP-40, 50 ng poly(dI-dC), on ice; 50 pM 32P-D; conditions: protein: recombinant, chain copies: 2
[2] = target: T1, cJun (cJun/cJun homodimer); assay: EMSA; 0.4-6.5 nM; low or sub-nanomolar; EMSA: 100 mM KCl, 4 mM MgCl2, 20 mM Tris pH 7.9, 20 mM HEPES pH 7.9, 10% glycerol, 0.1 mM DTT, 60 ug/ml BSA, 0.06% NP-40, 50 ng poly(dI-dC), on ice; 50 pM 32P-D; conditions: protein: recombinant; chain copies: 2; label: 5'-FAM or 32P
[3] = target: T2, cJun (cJun/cJun homodimer);cFos (in cJun/cFos heterodimer) (;, UniProt P05412;P01100 1-331;1-380, C269S|C154S); assay: EMSA; 0.4-6.5 nM protein; EMSA: 100 mM KCl, 4 mM MgCl2, 20 mM Tris pH 7.9, 20 mM HEPES pH 7.9, 10% glycerol, 0.1 mM DTT, 60 ug/ml BSA, 0.06% NP-40, 50 ng poly(dI-dC), on ice; 50 pM 32P-D; conditions: protein: recombinant;recombinant; tags: ;6His; copies: 1;1; label: 5'-FAM or 32P
[4] = target: T1, cJun (cJun/cJun homodimer); assay: DNase I footprinting; broad protection; EMSA: 100 mM KCl, 4 mM MgCl2, 20 mM Tris pH 7.9, 20 mM HEPES pH 7.9, 10% glycerol, 0.1 mM DTT, 60 ug/ml BSA, 0.06% NP-40, 50 ng poly(dI-dC), on ice; 50 pM 32P-D; conditions: protein: recombinant; chain copies: 2; label: 32P; three stem-loops, nt 13-68
[5] = target: T1, cJun (cJun/cJun homodimer); assay: competition; vs Cy5-labeled AP-1 DNA; EMSA: 100 mM KCl, 4 mM MgCl2, 20 mM Tris pH 7.9, 20 mM HEPES pH 7.9, 10% glycerol, 0.1 mM DTT, 60 ug/ml BSA, 0.06% NP-40, 50 ng poly(dI-dC), on ice; 50 pM 32P-D; conditions: protein: recombinant; chain copies: 2; hairpin
[6] = target: T2, cJun (cJun/cJun homodimer);cFos (in …); assay: EMSA; higher affinity than cJun/cJun; EMSA: 100 mM KCl, 4 mM MgCl2, 20 mM Tris pH 7.9, 20 mM HEPES pH 7.9, 10% glycerol, 0.1 mM DTT, 60 ug/ml BSA, 0.06% NP-40, 50 ng poly(dI-dC), on ice; 50 pM 32P-D; conditions: protein: recombinant;recombinant; tags: ;6His; copies: 1;1; label: 32P or 5'-Cy5; blunt

Binder	binding result [2]	binding result [3]	also measured
aptamer-19(12-74) (structured_DNA) DNA: TACGGCACCGTATAGTCGTACATGAACGAGTGTGAGTGTTAAGCCTTTGGCGACAGGGCTCGG	–	–	Kd ([1]; label: 32P, three stem-loops, nt 13-68): 0.5 nM
aptamer-27 (structured_DNA) DNA: GGGAGATCACTTACGGCACCAACGTCTCGTTGGTCGTTCCAGCGTTCTAGATGGATTCAGGCGACAGGGCTCGGAACC	binds	no binding	–
aptamer-19 (structured_DNA) DNA: GGGAGATCACTTACGGCACCGTATAGTCGTACATGAACGAGTGTGAGTGTTAAGCCTTTGGCGACAGGGCTCGGAACC	–	–	binding result [4]: binds
GTCCATGACTCAGAAGAGACACACTCTTCTGAGTCATGGAC (structured_DNA) [AP-1 DNA decoy (hairpin)]	–	–	binding result [5]: binds
GTCCAAATCTCAGAAGAGACACACTCTTCTGAGATTTGGAC (structured_DNA) [mutant AP-1 decoy (hairpin)]	–	–	binding result [5]: no binding
AP-1 DNA (dsDNA) DNA 1: AGGTCGTGACTCAGCGG DNA 2: CCGCTGAGTCACGACCT	–	–	binding result [6]: binds; Kd ([1]; label: 32P or 5'-Cy5, blunt): ~15 nM
aptamer-1 (structured_DNA) DNA: GGGAGATCACTTACGGCACCAGTCGTCGTTACTGCATTGCTCTATGGAGTATAAGCCCTGCGACAGGGCTCGGAACC	binds	no binding	–
aptamer-16 (structured_DNA) DNA: GGGAGATCACTTACGGCACCCGGAGGGTCGTTACCCACTGTTTGTTGGTATAAAGCCTGGCGACAGGGCTCGGAACC	binds	no binding	–
